Data published in publication PMC11252000, “MFSD1 with its accessory subunit GLMP functions as a general dipeptide uniporter in lysosomes” (Nature Cell Biology, 2024).
Residue numbers refer to the chain shown, from its start. Each block holds one compound with its values, some of them ahead of it. Where a SMILES comes first, the peptide text is derived from it.

What was measured:
[1] = target: T1, MFSD1 (MFSD1WT, mmMFSD1, MFSD1-strep) (Mus musculus, UniProt Q9DC37); assay: nanoDSF thermal shift titration; type: binding
T1 construct: full length; N-terminal Twin-Strep-tag + HRV 3C site; Expi293F; purified in DDM/CHS; liposomes POPE:POPG:CHS for transport
T1 sequence (Q9DC37 1-464): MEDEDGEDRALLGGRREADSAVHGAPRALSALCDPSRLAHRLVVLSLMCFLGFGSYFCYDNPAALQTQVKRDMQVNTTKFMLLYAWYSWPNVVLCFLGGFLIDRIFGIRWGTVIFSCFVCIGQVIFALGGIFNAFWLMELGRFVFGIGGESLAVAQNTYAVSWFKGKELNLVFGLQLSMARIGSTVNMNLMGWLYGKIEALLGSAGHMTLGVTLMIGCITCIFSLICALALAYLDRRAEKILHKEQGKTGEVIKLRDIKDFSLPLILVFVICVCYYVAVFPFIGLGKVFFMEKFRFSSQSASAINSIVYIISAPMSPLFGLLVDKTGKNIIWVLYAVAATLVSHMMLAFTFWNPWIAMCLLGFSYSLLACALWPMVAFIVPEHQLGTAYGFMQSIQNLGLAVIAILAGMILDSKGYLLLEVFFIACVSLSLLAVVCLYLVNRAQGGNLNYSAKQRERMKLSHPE

[2] = target: Ala-His; assay: nanoDSF thermal stability assay; conditions: 5 mM peptide, n = 3, apo Tm of WT est. 40 °C, parent: est. 40, read off a plot
[3] = target: Ala–Ala dipeptide; assay: nanoDSF thermal stability assay; conditions: 5 mM peptide, n = 3, apo Tm of WT est. 40 °C, parent: est. 41, read off a plot
[4] = target: Anserine; assay: nanoDSF thermal stability assay; conditions: 5 mM peptide, n = 3, apo Tm of WT est. 40 °C, parent: est. 40, read off a plot
[5] = target: Arg–Pro dipeptide; assay: nanoDSF thermal stability assay; conditions: 5 mM peptide, n = 3, apo Tm of WT est. 40 °C, parent: est. 42, read off a plot
[6] = target: His-Ser dipeptide; assay: nanoDSF thermal stability assay; conditions: 5 mM peptide, n = 3, apo Tm of WT est. 40 °C, parent: est. 40, read off a plot
[7] = target: His–Ala dipeptide; assay: nanoDSF thermal stability assay; conditions: 5 mM peptide, n = 3, apo Tm of WT est. 40 °C, parent: est. 41, read off a plot
[8] = target: Leu–Ala dipeptide; assay: nanoDSF thermal stability assay; conditions: 5 mM peptide, n = 3, apo Tm of WT est. 40 °C, parent: est. 47, read off a plot
[9] = target: Lys–Val dipeptide; assay: nanoDSF thermal stability assay; conditions: 5 mM peptide, n = 3, apo Tm of WT est. 40 °C, parent: est. 46, read off a plot
[10] = target: Pro–Arg dipeptide; assay: nanoDSF thermal stability assay; conditions: 5 mM peptide, n = 3, apo Tm of WT est. 40 °C, parent: est. 49, read off a plot
[11] = target: MFSD1-strep (mouse major facilitator superfamily domain containing 1 protein with N-terminal Twin-Strep-tag) (mouse) (UniProt Q9DC37); assay: nanoDSF thermal shift; protein 0.2 mg/ml in 100 mM HEPES pH 7.5, 150 mM NaCl, 0.03% DDM, 0.003% CHS; 5 mM ligand, 30 min at room temperature; 20 to 95 °C at 1 °C/min (Prometheus NT.48)
[12] = target: GLMP + MFSD1 co-complex (co-expressed MFSD1-strep and GLMP-Ct-His-GFP, purified) (mouse) (UniProt Q9DC37)
[13] = target: T2, MFSD1–GLMP oocytes (MFSD1L11A/L12A-EmGFP + GLMPY400A-mKate2) (Mus musculus, UniProt Q9DC37, L11A/L12A); assay: TEVC competition with Lys–Ala current in oocytes; type: cell-based
T2 construct: heterodimer at plasma membrane of Xenopus laevis oocytes; lysosomal sorting mutants; EmGFP and mKate2 fusions; with Glycosylated lysosomal membrane protein
T2 sequence (Q9DC37 1-464 L11A/L12A): T1 sequence (Q9DC37 1-464) with L11A, L12A
T2 sequence (Q9JHJ3 36-404 Y400A partner): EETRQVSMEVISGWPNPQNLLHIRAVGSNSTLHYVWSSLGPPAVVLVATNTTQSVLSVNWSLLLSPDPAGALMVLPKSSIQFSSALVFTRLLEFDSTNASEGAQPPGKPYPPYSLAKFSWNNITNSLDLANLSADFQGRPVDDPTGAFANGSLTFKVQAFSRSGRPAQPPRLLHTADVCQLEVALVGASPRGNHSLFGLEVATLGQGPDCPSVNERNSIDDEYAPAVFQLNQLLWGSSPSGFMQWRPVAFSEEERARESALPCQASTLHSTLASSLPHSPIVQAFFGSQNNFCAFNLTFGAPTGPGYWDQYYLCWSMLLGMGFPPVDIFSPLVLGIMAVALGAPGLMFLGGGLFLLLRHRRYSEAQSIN

[14] = apo Tm of this mutant est. 37 °C
[15] = apo Tm of this mutant est. 39 °C
[16] = apo Tm of this mutant est. 36 °C
[17] = apo Tm of this mutant est. 47 °C
[18] = apo Tm of this mutant est. 42 °C

MFSD1-strep (mouse major facilitator superfamily domain containing 1 protein with N-terminal Twin-Strep-tag) (from UniProt Q9DC37) W373A, sequence (Q9DC37 whole entry W373A, looked up, the tested form may be a part): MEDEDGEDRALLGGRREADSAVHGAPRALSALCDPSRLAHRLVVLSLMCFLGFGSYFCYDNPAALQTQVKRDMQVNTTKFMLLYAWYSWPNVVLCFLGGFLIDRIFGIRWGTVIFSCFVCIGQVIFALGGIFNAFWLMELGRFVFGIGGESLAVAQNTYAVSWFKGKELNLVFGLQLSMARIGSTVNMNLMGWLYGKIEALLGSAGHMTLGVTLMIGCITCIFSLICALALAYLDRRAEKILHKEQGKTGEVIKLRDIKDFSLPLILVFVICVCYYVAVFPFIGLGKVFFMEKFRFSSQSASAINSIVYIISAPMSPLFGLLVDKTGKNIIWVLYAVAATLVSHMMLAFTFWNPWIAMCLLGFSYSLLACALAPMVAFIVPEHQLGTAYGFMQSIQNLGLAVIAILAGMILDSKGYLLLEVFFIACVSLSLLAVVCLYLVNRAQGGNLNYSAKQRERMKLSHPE
MFSD1-strep (mouse major facilitator superfamily domain containing 1 protein with N-terminal Twin-Strep-tag) (from UniProt Q9DC37) Q176A, sequence (Q9DC37 whole entry Q176A, looked up, the tested form may be a part): as the sequence (Q9DC37 whole entry W373A, looked up, the tested form may be a part) above, with Q176A, A373W counted along it
MFSD1-strep (mouse major facilitator superfamily domain containing 1 protein with N-terminal Twin-Strep-tag) (from UniProt Q9DC37) Y56A, sequence (Q9DC37 whole entry Y56A, looked up, the tested form may be a part): as the sequence (Q9DC37 whole entry W373A, looked up, the tested form may be a part) above, with Y56A, A373W counted along it
MFSD1-strep (mouse major facilitator superfamily domain containing 1 protein with N-terminal Twin-Strep-tag) (from UniProt Q9DC37) Q176K, sequence (Q9DC37 whole entry Q176K, looked up, the tested form may be a part): as the sequence (Q9DC37 whole entry W373A, looked up, the tested form may be a part) above, with Q176K, A373W counted along it
MFSD1-strep (mouse major facilitator superfamily domain containing 1 protein with N-terminal Twin-Strep-tag) (from UniProt Q9DC37) Q176E, sequence (Q9DC37 whole entry Q176E, looked up, the tested form may be a part): as the sequence (Q9DC37 whole entry W373A, looked up, the tested form may be a part) above, with Q176E, A373W counted along it

Compound: N=C(N)NCCC[C@H](NC(=O)[C@@H]1CCCN1)C(=O)O [Pro–Arg] (H-Pro-Arg-OH)
Kd [1]: 318 ± 66.7 µM

Compound: MFSD1-strep (mouse major facilitator superfamily domain containing 1 protein with N-terminal Twin-Strep-tag) (from UniProt Q9DC37) Q176E
other: Tm [2, 14]: 40 °C
other: Tm [3, 14]: 42 °C
other: Tm [4, 14]: 40 °C
other: Tm [5, 14]: 48 °C
other: Tm [6, 14]: 40 °C
other: Tm [7, 14]: 44 °C
other: Tm [8, 14]: 52 °C
other: Tm [9, 14]: 49 °C
other: Tm [10, 14]: 51 °C

Compound: MFSD1-strep (mouse major facilitator superfamily domain containing 1 protein with N-terminal Twin-Strep-tag) (from UniProt Q9DC37) Q176A
other: Tm [2, 16]: 36 °C
other: Tm [3, 16]: 40 °C
other: Tm [4, 16]: 36 °C
other: Tm [5, 16]: 48 °C
other: Tm [6, 16]: 37 °C
other: Tm [7, 16]: 42 °C
other: Tm [8, 16]: 48 °C
other: Tm [9, 16]: 49 °C
other: Tm [10, 16]: 59 °C

Compound: MFSD1-strep (mouse major facilitator superfamily domain containing 1 protein with N-terminal Twin-Strep-tag) (from UniProt Q9DC37) W373A
other: Tm [2, 17]: 47 °C
other: Tm [3, 17]: 47 °C
other: Tm [4, 17]: 47 °C
other: Tm [5, 17]: 46 °C
other: Tm [6, 17]: 47 °C
other: Tm [7, 17]: 47 °C
other: Tm [8, 17]: 47 °C
other: Tm [9, 17]: 47 °C
other: Tm [10, 17]: 47 °C

Compound: CC(C)[C@H](NC(=O)[C@@H](N)CCCCN)C(=O)O [Lys–Val] (H-Lys-Val-OH)
Kd [1]: 4300 ± 600 µM

Compound: Lys–Ala dipeptide
KM of the Lys–Ala-evoked inward current in MFSD1–GLMP oocytes (TEVC, −40 mV, pH 5.0) [12]: 2.6 mM

Compound: His–Lys dipeptide
ΔTm at 5 mM ligand [11]: 12 °C

Compound: MFSD1-strep (mouse major facilitator superfamily domain containing 1 protein with N-terminal Twin-Strep-tag) (from UniProt Q9DC37) Q176K
other: Tm [2, 18]: 43 °C
other: Tm [3, 18]: 46 °C
other: Tm [4, 18]: 43 °C
other: Tm [5, 18]: 42 °C
other: Tm [6, 18]: 45 °C
other: Tm [7, 18]: 49 °C
other: Tm [8, 18]: 53 °C
other: Tm [9, 18]: 43 °C
other: Tm [10, 18]: 42 °C

Compound: C[C@H](N)C(=O)N[C@@H](C)C(=O)O [Ala–Ala] (H-Ala-Ala-OH)
inhibition at 20000 µM ([13]; read-out: % inhibition at 20 mM): 66 ± 3%

Compound: N[C@@H](CCC(=O)O)C(=O)N[C@@H](CO)C(=O)O [Glu–Ser] (H-Glu-Ser-OH)
inhibition at 10000 µM ([13]; read-out: % inhibition at 10 mM): 26 ± 3%

More lines, now with the values ahead:

Kd [1]: 2200 ± 420 µM
Compound: CC(C)C[C@H](N)C(=O)N[C@@H](C)C(=O)O [Leu–Ala] (H-Leu-Ala-OH)

other: Tm [2, 15]: 42 °C
other: Tm [3, 15]: 41 °C
other: Tm [4, 15]: 42 °C
other: Tm [5, 15]: 42 °C
other: Tm [6, 15]: 42 °C
other: Tm [7, 15]: 42 °C
other: Tm [8, 15]: 45 °C
other: Tm [9, 15]: 45 °C
other: Tm [10, 15]: 44 °C
Compound: MFSD1-strep (mouse major facilitator superfamily domain containing 1 protein with N-terminal Twin-Strep-tag) (from UniProt Q9DC37) Y56A

ΔTm at 5 mM ligand [11]: 14 °C
Compound: Leu–Leu dipeptide

ΔTm at 5 mM ligand [11]: 12.1 °C
Compound: Pro–Arg dipeptide

Kd [1]: 765 ± 136 µM
Compound: NCCCC[C@H](NC(=O)[C@@H](N)Cc1c[nH]cn1)C(=O)O [His–Lys] (H-His-Lys-OH)

inhibition of the current evoked by 3 mM Lys–Ala in MFSD1–GLMP oocytes (TEVC, pH 5.0) by 10 mM Glu–Ser applied simultaneously [12]: 26%
Compound: Glu–Ser dipeptide
